These results are taken from patent publication US20230381281A1, “PHARMACEUTICAL COMPOSITION COMPRISING GLUCAGON/GLP-1/GIP TRIPLE AGONIST OR LONG-ACTING CONJUGATE THEREOF FOR PREVENTING OR TREATING LUPUS-RELATED DISEASES” (HANMI PHARM. CO., LTD., priority 2020, published 2023).

Assay [1] addresses T1, human GCG receptor (Homo sapiens, UniProt P47871).
T1 construct: expressed in transfected cells; host or cells: Chinese hamster ovary (CHO)
As to the kind of experiment: In vitro cAMP activity in human GCG receptor-expressing CHO cells (LANCE cAMP kit). The assay is classed as cell-based. The conditions noted are these: statement in words in the description. On the procedure:
In order to measure the activity of the triple agonists and long-acting conjugates thereof prepared according to Examples 1 and 2, the in-vitro cell activity was measured using cell lines transformed with GLP-1 receptor, glucagon (GCG) receptor, and GIP receptor, respectively.
The cell lines were transformed to express human GLP-1 receptor, human GCG receptor and human GIP receptor genes in Chinese hamster ovary (CHO), respectively, and are suitable for measuring the activities of GLP-1, GCG, and GIP. Therefore, the activity for each part was measured using each transformed cell line.
To measure the GCG activity of the triple agonists and long-acting conjugates prepared according to Examples 1 and 2, human GCG was diluted from 50 nM to […] by 4-fold serial dilution, and the triple agonists and long-acting conjugates thereof prepared according to Examples 1 and 2 were diluted from 400 nM to 0.00038 nM by 4-fold serial dilution. The culture medium was removed from the cultured human GCG receptor-expressing CHO cells, 5 μl of each of the serially diluted materials was added to the cells, and then 5 μl of buffer containing cAMP antibody was added to the cells, followed by 15 minutes of incubation at room temperature. Then, cells were lysed by adding 10 μl of detection mix containing cell lysis buffer, and reacted at room temperature for 90 minutes. The cell lysate after the reaction had been completed, was applied to the LANCE cAMP kit (PerkinElmer, USA) to calculate the EC50 value through the accumulated cAMP, and then compared with each other.

A further assay has as its target T2, human GIP receptor (human, UniProt P48546 22-466).
T2 sequence (looked up): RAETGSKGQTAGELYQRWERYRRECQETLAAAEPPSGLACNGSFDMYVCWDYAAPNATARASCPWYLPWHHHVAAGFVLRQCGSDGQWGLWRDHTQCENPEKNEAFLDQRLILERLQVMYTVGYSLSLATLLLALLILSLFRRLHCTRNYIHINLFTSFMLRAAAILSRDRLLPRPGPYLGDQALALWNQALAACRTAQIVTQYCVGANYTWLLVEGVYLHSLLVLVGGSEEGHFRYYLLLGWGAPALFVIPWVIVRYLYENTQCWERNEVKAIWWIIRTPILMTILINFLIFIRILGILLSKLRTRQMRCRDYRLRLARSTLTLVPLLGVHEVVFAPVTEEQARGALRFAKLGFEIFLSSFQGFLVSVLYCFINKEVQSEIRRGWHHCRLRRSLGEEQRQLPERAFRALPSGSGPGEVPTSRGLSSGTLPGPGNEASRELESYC
The experiment in a line: cell-based or functional assay.

The target in another assay is human GLP-1 receptor (human, UniProt P43220 24-463). The experiment in a line: cell-based or functional assay.
The target of assay [2] is human GCG receptor (human, UniProt P47871 26-477). The experiment in a line: cell-based or functional assay.
Chain of human GCG receptor (human, UniProt P47871 26-477) (P47871 26-477): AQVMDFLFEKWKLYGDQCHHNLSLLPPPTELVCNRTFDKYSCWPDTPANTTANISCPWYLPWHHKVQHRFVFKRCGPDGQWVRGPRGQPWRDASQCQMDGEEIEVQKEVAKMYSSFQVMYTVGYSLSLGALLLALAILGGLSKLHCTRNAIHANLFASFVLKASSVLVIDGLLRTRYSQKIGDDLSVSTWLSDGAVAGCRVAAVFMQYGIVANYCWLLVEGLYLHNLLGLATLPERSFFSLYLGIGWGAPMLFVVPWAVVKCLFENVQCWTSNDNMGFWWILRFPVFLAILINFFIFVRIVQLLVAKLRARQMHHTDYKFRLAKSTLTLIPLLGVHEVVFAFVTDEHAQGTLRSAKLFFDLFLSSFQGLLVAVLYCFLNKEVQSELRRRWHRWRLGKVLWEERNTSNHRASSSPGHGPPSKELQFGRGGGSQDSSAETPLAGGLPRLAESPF

Bridge positions count the residues as written; N and C are the ends. Square brackets hold non-standard residues; d marks the D form. Ends that are not written are not given here. * marks the point of attachment. Acetyl(2-(4-imidazolyl)) = O=C(Cc1c[nH]cn1)*; Aib = CC(C)(N)C(=O)O

T1 sequence (P47871 26-477): as above

“97 (Y[Aib]QGTFTSDYSKYLDEKRAKEFVQWLLDCHPSSGQPPPS; bridge 16-20) [compound 97]”: in the assay with human GCG receptor [1], the “activity on the glucagon receptor” value is listed as “very high activity”.
Still for that read-out and setting: under “66 (Y[Aib]QGTFTSDYSKYLDECRAKDFVQWLLDHHPSSGQPPPS; bridge 16-20) [compound 66]” stands “very high activity”; under “70 (Y[Aib]QGTFTSDYSKCLDEKRAKDFVQWLLDHHPSSGQPPPS; bridge 16-20) [compound 70]”, “very high activity”.
H[Aib]QGTFTSDVSSYLLGQAAKQFIAWLVKGGGPSSGAPPPSC [Triple agonist of SEQ ID NO: 3]: the “In vitro activity compared to native peptide (%) vs GIP” value (shortened to “In vitro activity … (%) vs GIP”) with human GIP receptor was < 0.1%. Also, the “In vitro activity compared to native peptide (%) vs GLP-1” value (“In vitro activity … (%) vs GLP-1” below) with human GLP-1 receptor was found to be 1.8%. In addition, the “In vitro activity compared to native peptide (%) vs Glucagon” value (“In vitro activity … (%) vs Glucagon” below) with human GCG receptor [2] was < 0.1%.
On to Y[Aib]QGTFTSDYSKYLDECRAKEFVQWLLAQKGKKNDWKHNIT (bridge 16-20) [Triple agonist of SEQ ID NO: 23], for which the “In vitro activity … (%) vs GIP” value with human GIP receptor is < 0.1%. Besides, the “In vitro activity … (%) vs GLP-1” value with human GLP-1 receptor worked out at 4.01%. Also, the “In vitro activity … (%) vs Glucagon” value with human GCG receptor [2] was determined as 9.3%.
For {Acetyl(2-(4-imidazolyl))}-GQGTFTSDLSIQYDSEHQRDFIEWLKDTGPSSGAPPPSHG [Triple agonist of SEQ ID NO: 19], in that order: < 0.1%, < 0.1% and < 0.1%.
Turning to H[Aib]QGTFTSDCSKYLDSRAAQDFVQWLLDGGPSSGAPPPS [Triple agonist of SEQ ID NO: 26], the “In vitro activity … (%) vs GIP” value with human GIP receptor is < 0.1%. Moreover, the “In vitro activity … (%) vs GLP-1” value with human GLP-1 receptor stood at 64.5%. Besides, in the assay with human GCG receptor [2], the “In vitro activity … (%) vs Glucagon” value was determined as 0.2%.
As for H[Aib]QGTFTSDYSKYLDEKACKEFVQWLLAQ (bridge 16-20) [Triple agonist of SEQ ID NO: 31], the “In vitro activity … (%) vs GIP” value with human GIP receptor is 2.4%. For the same molecule, the “In vitro activity … (%) vs GLP-1” value in the assay with human GLP-1 receptor is 135%. The “In vitro activity … (%) vs Glucagon” value with human GCG receptor [2] came out at 2.2%.
For H[Aib]QGTFTSDCSKYLDERAAQDFVQWLLDGGPSSGAPPPS [Triple agonist of SEQ ID NO: 25], in that order: < 0.1%, 82.6% and 0.1%.
As to H[Aib]QGTFTSDYSKYLDEKAQKEFVQWLLDTC (bridge 16-20) [Triple agonist of SEQ ID NO: 30], the “In vitro activity … (%) vs GIP” value in the assay with human GIP receptor is 0.8%. Also, the “In vitro activity … (%) vs GLP-1” value with human GLP-1 receptor amounted to 142%. In addition, the “In vitro activity … (%) vs Glucagon” value with human GCG receptor [2] is 0.7%.
In the case of H[Aib]QGTFTSDYSKYLDEKAAKEFVQWLLNTC (bridge 16-20) [Triple agonist of SEQ ID NO: 29], the “In vitro activity … (%) vs GIP” value in the assay with human GIP receptor was < 0.1%. For the same molecule, the “In vitro activity … (%) vs GLP-1” value with human GLP-1 receptor amounted to 38.5%. For the same molecule, the “In vitro activity … (%) vs Glucagon” value with human GCG receptor [2] worked out at 6%.
For {Acetyl(2-(4-imidazolyl))}-GQGTFTSDLSIQYEEEAQQDFVEWLKDTGPSSGAPPPSHG [Triple agonist of SEQ ID NO: 20], in that order: < 0.1%, < 0.1% and < 0.1%.
On to Y[Aib]QGTFTSDYSKCLDEKRAKEFVQWLLDHHPSSGQPPPS (bridge 16-20) [Triple agonist of SEQ ID NO: 22], for which the “In vitro activity … (%) vs GIP” value in the assay with human GIP receptor is 59.7%. For the same molecule, the “In vitro activity … (%) vs GLP-1” value with human GLP-1 receptor amounted to 20.1%. For the same molecule, the “In vitro activity … (%) vs Glucagon” value in the assay with human GCG receptor [2] is 140%.
With H[Aib]QGTFTSDYSKYLDEKACKDFVQWLLDGGPSSGAPPPS (bridge 16-20) [Triple agonist of SEQ ID NO: 32], in the assay with human GIP receptor, the “In vitro activity … (%) vs GIP” value came to 8.8%. Also, the “In vitro activity … (%) vs GLP-1” value with human GLP-1 receptor was 151%. Besides, the “In vitro activity … (%) vs Glucagon” value in the assay with human GCG receptor [2] stood at 1.7%.
For H[Aib]QGTFTSDYSKYLDERACQDFVQWLLDQGGPSSGAPPPS [Triple agonist of SEQ ID NO: 27], in that order: 0.9%, 83.1% and 0.8%.
For the molecule {Acetyl(2-(4-imidazolyl))}-GQGTFTSDLSKQMDSEAQQLFIEWLKNGGPSSGAPPPSHG [Triple agonist of SEQ ID NO: 16], in the assay with human GIP receptor, the “In vitro activity … (%) vs GIP” value is < 0.1%. For the same molecule, the “In vitro activity … (%) vs GLP-1” value with human GLP-1 receptor turned out to be 2.1%. In addition, the “In vitro activity … (%) vs Glucagon” value with human GCG receptor [2] is < 0.1%.
On to H[Aib]QGTFTSDYSIAMDEIHQKDFVNWLLAQKC (bridge 16-20) [Triple agonist of SEQ ID NO: 33], for which the “In vitro activity … (%) vs GIP” value with human GIP receptor was 10.4%. Also, the “In vitro activity … (%) vs GLP-1” value with human GLP-1 receptor stood at 24.5%. For the same molecule, the “In vitro activity … (%) vs Glucagon” value with human GCG receptor [2] is < 0.1%.
For {Acetyl(2-(4-imidazolyl))}-GEGTFISDYSIQLDEIAVQDFVEWLLAQKPSSGAPPPSHG [Triple agonist of SEQ ID NO: 13], in that order: < 0.1%, < 0.1% and < 0.1%.
For {Acetyl(2-(4-imidazolyl))}-GQGTFTSDLSKQMDSERAREFIEWLKNTGPSSGAPPPSHG [Triple agonist of SEQ ID NO: 18], in that order: < 0.1%, < 0.1% and < 0.1%.
Take Y[Aib]QGTFTSDYSKYLDECRAKEFVQWLKNGGPSSGAPPPS (bridge 16-20) [Triple agonist of SEQ ID NO: 24]: the “In vitro activity … (%) vs GIP” value in the assay with human GIP receptor was < 0.1%. Further, the “In vitro activity … (%) vs GLP-1” value with human GLP-1 receptor worked out at 41.2%. The “In vitro activity … (%) vs Glucagon” value in the assay with human GCG receptor [2] was found to be 9.3%.
For {Acetyl(2-(4-imidazolyl))}-GQGTFTSDYSIQLDEIAVRDFVEWLKNGGPSSGAPPPSHG [Triple agonist of SEQ ID NO: 14], in that order: < 0.1%, 28% and < 0.1%.
As to H[Aib]QGTFTSDYSKYLDEKRAQEFVCWLLAQKGKKNDWKHNIT [Triple agonist of SEQ ID NO: 28], the “In vitro activity … (%) vs GIP” value with human GIP receptor was < 0.1%. Moreover, the “In vitro activity … (%) vs GLP-1” value with human GLP-1 receptor came to 17.2%. Also, the “In vitro activity … (%) vs Glucagon” value with human GCG receptor [2] worked out at 1.6%.
H[Aib]QGTFTSDVSSYLDGQAQKEFIAWLVKGC [Triple agonist of SEQ ID NO: 2]: the “In vitro activity … (%) vs GIP” value with human GIP receptor is < 0.1%. Also, the “In vitro activity … (%) vs GLP-1” value with human GLP-1 receptor was 5.9%. In the assay with human GCG receptor [2], the “In vitro activity … (%) vs Glucagon” value was < 0.1%.
With Y[Aib]QGTFTSDYSKYLDECRAKEFVQWLLDHHPSSGQPPPS (bridge 16-20) [Triple agonist of SEQ ID NO: 21], the “In vitro activity … (%) vs GIP” value with human GIP receptor was 22.7%. In addition, the “In vitro activity … (%) vs GLP-1” value with human GLP-1 receptor turned out to be 17.8%. In the assay with human GCG receptor [2], the “In vitro activity … (%) vs Glucagon” value amounted to 267%.
For {Acetyl(2-(4-imidazolyl))}-GQGTFTSDLSKQMDEERAREFIEWLLAQKPSSGAPPPSHG [Triple agonist of SEQ ID NO: 17], in that order: < 0.1%, 0.2% and < 0.1%.
